The values that follow come from patent US9394555B2, “Compositions comprising a polypeptide having cellulolytic enhancing activity and a dioxy compound and uses thereof” (priority 2010, dated 2016).

The target in the series is T. aurantiacus GH61A polypeptide (Thermoascus aurantiacus, UniProt G3XAP7, N13Y). The series is described as follows: Phosphoric acid swollen cellulose (PASC) hydrolysis assay (Examples 18, 19). The series is classed as biochemical. To be noted: T. aurantiacus GH61A polypeptide (20 mg/g) + A. oryzae CEL3A beta-glucosidase (20 mg/g), no gallic acid; 72 hours, 50° C. As for the experimental part: A 1% phosphoric acid swollen cellulose (PASC) slurry was prepared from AVICEL® PH101 using the protocol described by Zhang et al., 2006, Biomacromolecules 7: 644-648.
The 1.0% PASC slurry prepared as described in Example 17 was thoroughly resuspended by shaking, and quickly transferred to a 100 ml beaker and stirred rapidly with a magnetic stirrer. Five hundred μl aliquots of the 1.0% PASC slurry were pipetted into wells of a 2.0 ml 96-deepwell plate (Axygen, Union City, Calif., USA) using a 1000 μl micropipette with a wide aperture tip (end of tip cut off about 2 mm from the base). One hundred μl of 10 mM MnSO4-500 mM sodium acetate pH 5 were then added to each well. […]
Primary analysis of the hydrolysis reactions was performed using an AGILENT® 1100 HPLC with CHEMSTATION® software equipped with an AMINEX™ HPX-87H column. […] Sugars were detected using a refractive index detector with quantification by integration compared to purified sugar standards.
All HPLC data processing was performed using MICROSOFT EXCEL™ software. […] In this assay only glucose was measured since beta-glucosidase was at high levels in all samples but the controls. Percent conversion was calculated using Equation 1. Triplicate data points were averaged and standard deviation was calculated. […]
Data were collected and analyzed, as described in Example 18, after 72 hours of incubation at 50° C.

B1: T. aurantiacus GH61A polypeptide: GH61A polypeptide having cellulolytic enhancing activity (SEQ ID NO: 14), recombinantly produced in Aspergillus oryzae JaL250 (protein, listed as Thermoascus aurantiacus)
chain: MSFSKIIATAGVLASASLVAGHGFVQNIVIDGKYYGGYLVNQYPYMSNPPEVIAWSTTATDLGFVDGTGYQTPDIICHRGAKPGALTAPVSPGGTVELQWTPWPDSHHGPVINYLAPCNGDCSTVDKTQLEFFKIAESGLINDDNPPGIWASDNLIAANNSWTVTIPTTIAPGNYVLRHEIIALHSAQNQDGAQNYPQCINLQVTGGGSDNPAGTLGTALYHDTDPGILINIYQKLSSYIIPGPPLYTG
Turning to B1, the “conversion of PASC” value came out at 2.6±0.1%.
